This passage reports percent of cells with a positive PLA signal results from article PMC9867282.

The target of this assay is cytosolic carboxypeptidase 6 (CCP6), endogenous (human (endogenous in HEK 293T)) (UniProt Q5VU57). As to the kind of experiment: proximity ligation; Duolink PLA in HEK 293T cells fixed with 4% paraformaldehyde; primary antibodies against the two proteins; confocal microscopy; three independent experiments, at least 75 cells in total.
Sequence of UniProt Q5VU57 (Q5VU57 whole entry): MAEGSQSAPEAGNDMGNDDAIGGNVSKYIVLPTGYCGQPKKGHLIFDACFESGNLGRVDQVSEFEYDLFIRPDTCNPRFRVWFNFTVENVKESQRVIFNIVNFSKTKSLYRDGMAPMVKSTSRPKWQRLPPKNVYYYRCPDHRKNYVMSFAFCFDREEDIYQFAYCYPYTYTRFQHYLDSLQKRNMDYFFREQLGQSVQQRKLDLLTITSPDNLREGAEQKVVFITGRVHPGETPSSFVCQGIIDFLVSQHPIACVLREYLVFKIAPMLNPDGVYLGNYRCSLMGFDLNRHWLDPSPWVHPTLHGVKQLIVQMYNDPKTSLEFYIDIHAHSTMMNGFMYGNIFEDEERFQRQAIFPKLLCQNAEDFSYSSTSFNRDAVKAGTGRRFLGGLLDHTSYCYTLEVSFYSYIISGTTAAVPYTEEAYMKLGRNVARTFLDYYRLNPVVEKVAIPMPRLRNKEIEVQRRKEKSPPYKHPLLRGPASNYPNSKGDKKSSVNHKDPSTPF
The substance “NudC (from UniProt Q9Y266 1-331) (natural protein)” showed a percent of cells with a positive PLA signal of 52%.

“Progesterone-induced-blocking factor 1 PIBF1 (from UniProt Q8WXW3 1-757) (natural protein)” came in with a percent of cells with a positive PLA signal of 37%.

Take “Pericentriolar material 1 protein PCM1 (from UniProt Q15154 1-2024) (natural protein)”: the percent of cells with a positive PLA signal worked out at 73%.
